Measurements published in paper PMC11963670.

Experiments:
[1] = biological target: RHDV GI.2 P domain mutant N387D, MBP fusion (rabbit hemorrhagic disease virus GI.2 (isolate N-11)); experiment: native gel or EMSA; PAGE under denaturing or native conditions of the MBP-P domain point mutants; monomer and homodimer bands; BSA as negative control
[2] = biological target: RHDV GI.2 P domain loop-swap mutant L1´L4´L5´ (loops 1, 4 and 5 of GI.1b), His-tagged MBP fusion (rabbit hemorrhagic disease virus GI.2 (isolate N-11)); experiment: native gel or EMSA; nondenaturing PAGE of the MBP-P domain fusions, western blot with an anti-His tag monoclonal antibody; monomer band (calculated 85 kDa) and a slower band of the dimer
[3] = biological target: RHDV GI.2 P domain loop-swap mutant L4´ (loop 4 of GI.1b), His-tagged MBP fusion (rabbit hemorrhagic disease virus GI.2 (isolate N-11)); experiment: as above
[4] = biological target: RHDV GI.2 P domain loop-swap mutant L1´L4´ (loops 1 and 4 of GI.1b), His-tagged MBP fusion (rabbit hemorrhagic disease virus GI.2 (isolate N-11)); experiment: as above
[5] = biological target: RHDV GI.2 P domain loop-swap mutant L5´ (loop 5 of GI.1b), His-tagged MBP fusion (rabbit hemorrhagic disease virus GI.2 (isolate N-11)); experiment: as above
[6] = biological target: RHDV GI.1b P domain of VP60, MBP fusion (rabbit hemorrhagic disease virus GI.1b (isolate RHDV-Ast89)); experiment: as above
[7] = biological target: RHDV GI.2 wild-type P domain of VP60 (isolate N-11), His-tagged MBP fusion (rabbit hemorrhagic disease virus GI.2 (isolate N-11)); experiment: as above
[8] = biological target: RHDV GI.2 P domain loop-swap mutant L4´L5´ (loops 4 and 5 of GI.1b), His-tagged MBP fusion (rabbit hemorrhagic disease virus GI.2 (isolate N-11)); experiment: as above
[9] = biological target: RHDV GI.2 P domain loop-swap mutant L3´ (loop 3 of GI.1b), His-tagged MBP fusion (rabbit hemorrhagic disease virus GI.2 (isolate N-11)); experiment: as above
[10] = biological target: RHDV GI.2 P domain loop-swap mutant L1´ (loop 1 of GI.1b), His-tagged MBP fusion (rabbit hemorrhagic disease virus GI.2 (isolate N-11)); experiment: as above
[11] = biological target: RHDV GI.2 P domain mutant N387A, MBP fusion (rabbit hemorrhagic disease virus GI.2 (isolate N-11)); experiment: native gel or EMSA; PAGE under denaturing or native conditions of the MBP-P domain point mutants; monomer and homodimer bands; BSA as negative control
[12] = biological target: RHDV GI.2 P domain loop-swap mutant L2´ (loop 2 of GI.1b), His-tagged MBP fusion (rabbit hemorrhagic disease virus GI.2 (isolate N-11)); experiment: native gel or EMSA; nondenaturing PAGE of the MBP-P domain fusions, western blot with an anti-His tag monoclonal antibody; monomer band (calculated 85 kDa) and a slower band of the dimer

RHDV GI.2 P domain mutant N387D, MBP fusion (domain or fragment)
stoichiometry N [1]: 2

RHDV GI.2 P domain loop-swap mutant L1´L4´L5´ (loops 1, 4 and 5 of GI.1b), His-tagged MBP fusion (domain or fragment)
stoichiometry N [2]: 2

RHDV GI.2 P domain loop-swap mutant L4´ (loop 4 of GI.1b), His-tagged MBP fusion (domain or fragment)
stoichiometry N [3]: 2

RHDV GI.2 P domain loop-swap mutant L1´L4´ (loops 1 and 4 of GI.1b), His-tagged MBP fusion (domain or fragment)
stoichiometry N [4]: 2

RHDV GI.2 P domain loop-swap mutant L5´ (loop 5 of GI.1b), His-tagged MBP fusion (domain or fragment)
stoichiometry N [5]: 2

RHDV GI.1b P domain of VP60, MBP fusion (domain or fragment)
stoichiometry N [6]: 2

RHDV GI.2 wild-type P domain of VP60 (isolate N-11), His-tagged MBP fusion (domain or fragment)
stoichiometry N [7]: 2

RHDV GI.2 P domain loop-swap mutant L4´L5´ (loops 4 and 5 of GI.1b), His-tagged MBP fusion (domain or fragment)
stoichiometry N [8]: 2

RHDV GI.2 P domain loop-swap mutant L3´ (loop 3 of GI.1b), His-tagged MBP fusion (domain or fragment)
stoichiometry N [9]: 2

RHDV GI.2 P domain loop-swap mutant L1´ (loop 1 of GI.1b), His-tagged MBP fusion (domain or fragment)
stoichiometry N [10]: 2

RHDV GI.2 P domain mutant N387A, MBP fusion (domain or fragment)
stoichiometry N [11]: 2

RHDV GI.2 P domain loop-swap mutant L2´ (loop 2 of GI.1b), His-tagged MBP fusion (domain or fragment)
stoichiometry N [12]: 2
